Measurements published in paper PMC11202169, “A Novel Fluorescence-Based Microplate Assay for High-Throughput Screening of hSULT1As Inhibitors” (Biosensors, 2024).

Key:
Assay type in all cases: biochemical, human
Settings in all cases: other: HN-241 4-O-sulfation
[1] = substrate: CCN1C(=O)c2cccc3c(O)ccc(c23)C1=O; assay: Enzymatic kinetics of hSULT1A1-catalyzed HN-241 4-O-sulfation
Method: (§1) The enzymatic kinetic parameters of hSULT1As-catalyzed HN-241 4-O-sulfation were measured by incubating increasing concentrations of HN-241 with each of the hSULT1As for a certain period. The fitting equations included Equation (2), the Michaelis–Menten equation, and Equation (3) for enzyme kinetics with substrate inhibition. Related kinetic parameters were fitted by GraphPad Prism 8.0 (San Diego, CA, USA). (2) V=Vmax × [S]/Km+[S] (3) V=Vmax × [S]/Km+[S](1+[S]/Ki)
(§2) [S] refers to the concentration of HN-241, Vmax is the maximum rate of hSULT1As-catalyzed HN-241 4-O-sulfation, Km is the substrate concentration at the half Vmax, and Ki represents the dissociation constant for the binding of the substrate to the inhibitory site.

[2] = substrate: CCN1C(=O)c2cccc3c(O)ccc(c23)C1=O; assay: Enzymatic kinetics of hSULT1A2-catalyzed HN-241 4-O-sulfation
Method: as §1, §2

[3] = substrate: CCN1C(=O)c2cccc3c(O)ccc(c23)C1=O; assay: Enzymatic kinetics of hSULT1A3-catalyzed HN-241 4-O-sulfation
Method: as §1, §2

B1: hSULT1A1 (Homo sapiens) (protein)
chain: MELIQDTSRPPLEYVKGVPLIKYFAEALGPLQSFQARPDDLLISTYPKSGTTWVSQILDMIYQGGDLEKCHRAPIFMRVPFLEFKAPGIPSGMETLKDTPAPRLLKTHLPLALLPQTLLDQKVKVVYVARNAKDVAVSYYHFYHMAKVHPEPGTWDSFLEKFMVGEVSYGSWYQHVQEWWELSRTHPVLYLFYEDMKENPKREIQKILEFVGRSLPEETVDFVVQHTSFKEMKKNPMTNYTTVPQEFMDHSISPFMRKGMAGDWKTTFTVAQNERFDADYAEKMAGCSLSFRSEL
notes: 6-histidine tag (N); TEV site (N); made in house; host or cells: Escherichia coli BL21 (DE3), pET29a(+)
**Q.** B1 was tested. Which Km [1] did it give?
**A.** The Km was 0.91 ± 0.24 µM.

**Q.** And the Vmax [1]?
**A.** Its Vmax is 0.0221 ± 0.00443 µmol/min/mg.

**Q.** And the Vmax/Km [1]?
**A.** The Vmax/Km was 24300 µL/min/mg.

B2: hSULT1A2 (Homo sapiens) (protein)
chain: MELIQDISRPPLEYVKGVPLIKYFAEALGPLQSFQARPDDLLISTYPKSGTTWVSQILDMIYQGGDLEKCHRAPIFMRVPFLEFKVPGIPSGMETLKNTPAPRLLKTHLPLALLPQTLLDQKVKVVYVARNAKDVAVSYYHFYHMAKVYPHPGTWESFLEKFMAGEVSYGSWYQHVQEWWELSRTHPVLYLFYEDMKENPKREIQKILEFVGRSLPEETVDLMVEHTSFKEMKKNPMTNYTTVRREFMDHSISPFMRKGMAGDWKTTFTVAQNERFDADYAKKMAGCSLSFRSEL
notes: as for B1
**Q.** How did the Km [2] turn out when B2 was run?
**A.** Its Km is 4.47 ± 0.20 µM.

**Q.** What about the Vmax [2] of the same protein?
**A.** Its Vmax is 0.00644 µmol/min/mg.

**Q.** And the Vmax/Km [2]?
**A.** The Vmax/Km was 1440 µL/min/mg.

B3: hSULT1A3 (Homo sapiens) (protein)
chain: MELIQDTSRPPLEYVKGVPLIKYFAEALGPLQSFQARPDDLLINTYPKSGTTWVSQILDMIYQGGDLEKCNRAPIYVRVPFLEVNDPGEPSGLETLKDTPPPRLIKSHLPLALLPQTLLDQKVKVVYVARNPKDVAVSYYHFHRMEKAHPEPGTWDSFLEKFMAGEVSYGSWYQHVQEWWELSRTHPVLYLFYEDMKENPKREIQKILEFVGRSLPEETMDFMVQHTSFKEMKKNPMTNYTTVPQELMDHSISPFMRKGMAGDWKTTFTVAQNERFDADYAEKMAGCSLSFRSEL
notes: as for B1
**Q.** Which results are given for B3?
**A.** Km [3]: 12.90 ± 1.16 µM; Vmax [3]: 0.00881 µmol/min/mg; Vmax/Km [3]: 683 µL/min/mg
